Measurements as given in patent US10005838B2, “Milk fat globule epidermal growth factor 8 regulates fatty acid uptake” (REGENTS OF THE UNIVERSITY OF CALIFORNIA, priority 2013, dated 2018).

Assay: Activity of Mfge8 sequence lacking the second discoidin domain (test not named at the place)
Settings: mouse Mfge8 lacking the second discoidin domain

B1: SEQ ID NO:4: mouse Mfge8 sequence lacking the second discoidan domain but including all other native sequence (protein)
chain: MQVSRVLAALCGMLLCASGLFAASGDFCDSSLCLNGGTCLTGQDNDIYCLCPEGFTGLVCNETERGPCSPNPCYNDAKCLVTLDTQRGDIFTEYICQCPVGYSGIHCETETNYYNLDGEYMFTTAVPNTAVPTPAPTPDLSNNLASRCSTQLGMEGGAIADSQISASSVYMGFMGLQRWGPELARLYRTGIVNAWTASNYDSKPWIQVNLLRKMRVSGVMTQGASRAGRAEYLKTFKVAYSLDGRKFEFIQDESGGDKEFLGNLDNNSLKVNMFNPTLEAQYIKLYPVSCHRGCTLRFELLGCKPFMARYVRVLPVSWHNRITLRLELLGC
modifications: synthetic E1E2D1 mouse milk fat globule epidermal growth factor 8 (Mfge8) long construct (lacking second discoidin domain)
activity of the Mfge8 fragment: remains active
